Target: CD19-CD22 CAR(CD19-CD22双靶点CAR-T细胞表面表达的CD19-CD22 scFv)
Experiment: flow cytometry on CD19-CD22 CAR-T cells, positive control tube

CAR阳性百分率: 31.6%
Substance: Alexa Fluor®647荧光标记的抗鼠F(ab')2抗体(Jackson ImmunoResearch Laboratories，货号#115-605-072) (antibody)
